Results from PMC9371724 (2022).

T1: HA69 peptide on HLA DQB1*06:02/DQA1*01:02 (DQ0602) (human)
T1 peptide: AMERNAGSGIIISDT


Molecular target: T1, HA69 peptide on HLA …
Test: activation reporter or marker

Binder	binding result
TCR CAASRGTSYDKVIF / CSTQRLYNEQFF (TCR) alpha TRAV13-1 TRAJ50 CDR3: CAASRGTSYDKVIF beta TRBV29-1 TRBJ2-1 CDR3: CSTQRLYNEQFF	recognises
TCR867 (TCR) alpha TRAV17 TRAJ34 CDR3: CATDAYNTDKLIF beta TRBV4-3 TRBJ1-3 CDR3: CASSQGRTASGNTIYF	recognises
TCR CAMREGHIQGAQKLVF / CASSSGNLNTEAFF (TCR) alpha TRAV14/DV4 TRAJ54 CDR3: CAMREGHIQGAQKLVF beta TRBV19 TRBJ1-1 CDR3: CASSSGNLNTEAFF	recognises
…-1 (TCR) alpha TRAV8-6 TRAJ24 CDR3: CAVSEDDSWGKLQF beta TRBV29-1 TRBJ1-6 CDR3: CSVARDRNSPLHF	no recognition
TCR CIVRAGGTSYGKLTF / CAWSPLAGTGAPQPQHF (TCR) alpha TRAV26-1 TRAJ52 CDR3: CIVRAGGTSYGKLTF beta TRBV30 TRBJ1-5 CDR3: CAWSPLAGTGAPQPQHF	recognises
TCR CAATDTGNQFYF / CASSQHGQGNQPQHF (TCR) alpha TRAV13-1 TRAJ49 CDR3: CAATDTGNQFYF beta TRBV7-8 TRBJ1-5 CDR3: CASSQHGQGNQPQHF	recognises
TCR CAASRGTSYDKVIF / CSVRGLYNEQFF (TCR) alpha TRAV13-1 TRAJ50 CDR3: CAASRGTSYDKVIF beta TRBV29-1 TRBJ2-1 CDR3: CSVRGLYNEQFF	recognises
TCR CATGHTGANSKLTF / CASSLQGTPNGNQPQHF (TCR) alpha TRAV17 TRAJ56 CDR3: CATGHTGANSKLTF beta TRBV19 TRBJ1-5 CDR3: CASSLQGTPNGNQPQHF	recognises
TCR CAAFENVLHC / CASSERPYPGETQYF (TCR) alpha TRAV13-1 TRAJ35 CDR3: CAAFENVLHC beta TRBV6-1 TRBJ2-5 CDR3: CASSERPYPGETQYF	recognises
TCR CALTMKTSYDKVIF / CASSIGTSGPDTQYF (TCR) alpha TRAV9-2 TRAJ50 CDR3: CALTMKTSYDKVIF beta TRBV19 TRBJ2-3 CDR3: CASSIGTSGPDTQYF	recognises
TCR CASAYTGTASKLTF / CASSIDLGGRADGGYTF (TCR) alpha TRAV17 TRAJ44 CDR3: CASAYTGTASKLTF beta TRBV19 TRBJ1-2 CDR3: CASSIDLGGRADGGYTF	recognises
TCR CAGKENSGGSNYKLTF / CASRVQGARAEAFF (TCR) alpha TRAV25 TRAJ53 CDR3: CAGKENSGGSNYKLTF beta TRBV19 TRBJ1-1 CDR3: CASRVQGARAEAFF	recognises
TCR108 (TCR) alpha TRAV8-3 TRAJ24 CDR3: CAVGFTDSWGKLQF beta TRBV19 TRBJ2-1 CDR3: CASSIDPSGNHYNEQFF	recognises
TCR CAVEETSGSRLTF / CASSQPDTRADTQYF (TCR) alpha TRAV39 TRAJ58 CDR3: CAVEETSGSRLTF beta TRBV4-2 TRBJ2-3 CDR3: CASSQPDTRADTQYF	recognises
TCR538 (TCR) alpha TRAV4 TRAJ42 CDR3: CLVGAPSLYGGSQGNLIF beta TRBV7-8 TRBJ2-1 CDR3: CASNPAGAVSYNEQFF	recognises
TCR861 (TCR) alpha TRAV13-1 TRAJ50 CDR3: CAASRGTSYDKVIF beta TRBV29-1 TRBJ2-1 CDR3: CSVRSLYNEQFF	recognises
TCR CATDSYNTDKLIF / CASSQGAGAQTYYGYTF (TCR) alpha TRAV17 TRAJ34 CDR3: CATDSYNTDKLIF beta TRBV4-3 TRBJ1-2 CDR3: CASSQGAGAQTYYGYTF	recognises
TCR285 (TCR) alpha TRAV13-1 TRAJ49 CDR3: CAATPGRTGNQFYF beta TRBV4-2 TRBJ2-5 CDR3: CASSQGQGDETQYF	recognises
TCR CIVSPHGSGNTGKLIF / CASSIGARGQLFF (TCR) alpha TRAV26-1 TRAJ37 CDR3: CIVSPHGSGNTGKLIF beta TRBV19 TRBJ1-4 CDR3: CASSIGARGQLFF	recognises
TCR CIVRSQGGSYIPTF / CATSRDTMTSIGTDTQYF (TCR) alpha TRAV26-1 TRAJ6 CDR3: CIVRSQGGSYIPTF beta TRBV15 TRBJ2-3 CDR3: CATSRDTMTSIGTDTQYF	recognises
TCR CAVSRAGANNLFF / CASSQGLGPGLFNQPQHF (TCR) alpha TRAV21 TRAJ36 CDR3: CAVSRAGANNLFF beta TRBV4-3 TRBJ1-5 CDR3: CASSQGLGPGLFNQPQHF	recognises
TCR CAGRPNSGGSNYKLTF / CASSDQAAWAGYTF (TCR) alpha TRAV35 TRAJ53 CDR3: CAGRPNSGGSNYKLTF beta TRBV19 TRBJ1-2 CDR3: CASSDQAAWAGYTF	recognises
TCR872 (TCR) alpha TRAV17 TRAJ34 CDR3: CATVGYNTDKLIF beta TRBV4-3 TRBJ1-4 CDR3: CASSQGLGPTNEKLFF	recognises
TCR CAAADTGNQFYF / CASSSHGQGNQPQHF (TCR) alpha TRAV13-1 TRAJ49 CDR3: CAAADTGNQFYF beta TRBV7-8 TRBJ1-5 CDR3: CASSSHGQGNQPQHF	recognises
TCR CILRDVLSNFGNEKLTF / CASSQASVSVDTQYF (TCR) alpha TRAV26-2 TRAJ48 CDR3: CILRDVLSNFGNEKLTF beta TRBV4-2 TRBJ2-3 CDR3: CASSQASVSVDTQYF	recognises
TCR CAGRPNSGGSNYKLTF / CASSGQQALYGYTF (TCR) alpha TRAV35 TRAJ53 CDR3: CAGRPNSGGSNYKLTF beta TRBV19 TRBJ1-2 CDR3: CASSGQQALYGYTF	recognises
…-1 (TCR) alpha TRAV8-3 TRAJ24 CDR3: CAVGLTDSWGKLQF beta TRBV19 TRBJ2-1 CDR3: CASSFSKNGNSYNEQFF	no recognition
TCR CATDAELGNKLVF / CASSQDRGRGTDTQYF (TCR) alpha TRAV17 TRAJ47 CDR3: CATDAELGNKLVF beta TRBV4-2 TRBJ2-3 CDR3: CASSQDRGRGTDTQYF	recognises
TCR755 (TCR) alpha TRAV12-3 TRAJ8 CDR3: CAMSETRFQKLVF beta TRBV19 TRBJ2-7 CDR3: CASSSTGGNYEQYF	recognises
